Results taken from US20220411483A1 (Chugai, published 2022).
Numbering of substitutions follows the chain as printed. Values belong to the binder of their own block, whether it stands above or below them.

How the values were obtained:
[1] = molecular target: T1, FcγRIIb extracellular domain with C-terminal His tag (human, UniProt P31994 43-217); assay: SPR, antibody captured, FcgR analyte
T1 construct: extracellular domain; also called FcgRIIb; not shown: His tag at the C terminus
T1 sequence (looked up): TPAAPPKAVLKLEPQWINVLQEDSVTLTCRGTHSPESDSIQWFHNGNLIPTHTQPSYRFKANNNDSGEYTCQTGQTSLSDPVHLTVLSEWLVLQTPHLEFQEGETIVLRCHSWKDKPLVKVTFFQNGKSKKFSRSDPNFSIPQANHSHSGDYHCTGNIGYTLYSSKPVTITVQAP

[2] = molecular target: T2, FcγRIa extracellular domain with C-terminal His tag (human, UniProt P12314 16-292); assay: SPR, antibody captured, FcgR analyte
T2 construct: also called FcgRIa; CD64; not shown: His tag at the C terminus
T2 sequence (P12314 16-292): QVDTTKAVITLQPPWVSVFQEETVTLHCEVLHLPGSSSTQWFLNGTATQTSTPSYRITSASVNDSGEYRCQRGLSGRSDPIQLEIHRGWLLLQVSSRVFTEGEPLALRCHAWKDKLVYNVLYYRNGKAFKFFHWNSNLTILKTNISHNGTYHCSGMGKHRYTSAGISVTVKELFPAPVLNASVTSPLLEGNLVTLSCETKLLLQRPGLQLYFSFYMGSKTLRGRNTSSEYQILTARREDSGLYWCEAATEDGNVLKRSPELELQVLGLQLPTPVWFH

[3] = molecular target: T3, FcγRIIa R type extracellular domain with C-terminal His tag (human, UniProt P12318 34-217); assay: SPR, antibody captured, FcgR analyte
T3 construct: extracellular domain; also called FcgRIIaR; not shown: His tag at the C terminus
T3 sequence (looked up): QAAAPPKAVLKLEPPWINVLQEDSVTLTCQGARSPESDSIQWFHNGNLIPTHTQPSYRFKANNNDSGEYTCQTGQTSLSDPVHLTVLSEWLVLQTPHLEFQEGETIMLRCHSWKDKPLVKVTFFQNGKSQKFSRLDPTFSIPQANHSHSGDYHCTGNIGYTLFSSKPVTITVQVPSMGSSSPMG

[4] = molecular target: T1, FcγRIIb extracellular domain with …; assay: SPR; KD of IL6R-B3/IL6R-L divided by KD of variant
[5] = molecular target: T3, FcγRIIa R type extracellular domain …; assay: SPR; KD of IL6R-B3/IL6R-L divided by KD of variant
FcgRIIaR = molecular target: T4, FcgRIIaR (human, UniProt P12318 34-217); assay: SPR, amount bound per captured antibody
T4 construct: extracellular domain; also called FcγRIIa R type; FcγRIIa (R type)
T4 sequence (looked up): T3 sequence (looked up)

FcgRIIb = molecular target: T5, FcgRIIb (human, UniProt P31994 43-217); assay: SPR, amount bound per captured antibody
T5 construct: extracellular domain; also called FcγRIIb
T5 sequence (looked up): T1 sequence (looked up)

B1: IL6R-BP481/IL6R-L (antibody, human IgG1, kappa, name in EU numbering)
heavy: QVQLQESGPGLVKPSETLSLTCAVSGHSISHDHAWSWVRQPPGEGLEWIGFISYSGITNYNPSLQGRVTISRDNSKNTLYLQMNSLRAEDTAVYYCARSLARTTAMDYWGEGTLVTVSSASTKGPSVFPLAPSSKSTSGGTAALGCLVKDYFPEPVTVSWNSGALTSGVHTFPAVLQSSGLYSLSSVVTVPSSSLGTQTYICNVNHKPSNTKVDKKVEPKSCDKTHTCPPCPAPDLLGDDSVFLFPPKPKDTLMISRTPEVTCVVIDVAEEDGEVKFNWYVDGVEVHNAKTKPREEQYNSTYRVVSVLTVLHQDWLNGKEYKCKVSNKALPAPIEKTISKAKGQPREPQVYTLPPSRDELTKNQVSLTCLVKGFYPSDIAVEWESNGQPENNYKTTPPVLDSDGSFFLYSKLTVDKSRWQQGNVFSCSVMHEALHNHYTQESLSLSP
light: not shown
notes: human IgG1
Kd [1]: 19 nM | Kd [2]: 1 nM | Kd [3]: 400 nM | Relative FcgRIIb-binding Activity [4]: 159 | Relative FcgRIIaR-binding Activity [5]: 2.7

B4: IL6R-BP479/IL6R-L (antibody, human IgG1, kappa, name in EU numbering)
heavy: B1 heavy with V268L
light: not shown
notes: human IgG1
Kd [1]: 56 nM | Kd [2]: 5.3 nM | Kd [3]: 900 nM | Relative FcgRIIb-binding Activity [4]: 55.3 | Relative FcgRIIaR-binding Activity [5]: 1.2

B5: IL6R-BP509/IL6R-L (antibody, human IgG1, kappa, name in EU numbering)
heavy: B1 heavy with E274D, Y298D
light: not shown
notes: human IgG1
Kd [1]: 18 nM | Kd [2]: 1.1 nM | Kd [3]: 520 nM | Relative FcgRIIb-binding Activity [4]: 174 | Relative FcgRIIaR-binding Activity [5]: 2.1

B6: IL6R-P639/IL6R-L (antibody, human IgG1, kappa)
heavy: B1 heavy with L236N, Y298D, A332R, P398M, E441K
light: not shown
Relative FcgRIIaR-binding Activity (FcgRIIaR): 109 IL6R-G1d/IL6R-L=100 | Relative FcgRIIb-binding Activity (FcgRIIb): 184 IL6R-G1d/IL6R-L=100

B8: IL6R-BP500/IL6R-L (antibody, human IgG1, kappa, name in EU numbering)
heavy: B1 heavy with D235E, Y298D
light: not shown
notes: human IgG1
Kd [1]: 24 nM | Kd [2]: 2.3 nM | Kd [3]: 720 nM | Relative FcgRIIb-binding Activity [4]: 128 | Relative FcgRIIaR-binding Activity [5]: 1.5

B9: IL6R-BP484/IL6R-L (antibody, human IgG1, kappa, name in EU numbering)
heavy: B1 heavy with I266V, E271D
light: not shown
notes: human IgG1
Kd [1]: 46 nM | Kd [2]: 0.82 nM | Kd [3]: 780 nM | Relative FcgRIIb-binding Activity [4]: 67.6 | Relative FcgRIIaR-binding Activity [5]: 1.4

B11: IL6R-P640/IL6R-L (antibody, human IgG1, kappa)
heavy: B1 heavy with L236K, Y298D, A332R, P398M, E441K
light: not shown
Relative FcgRIIaR-binding Activity (FcgRIIaR): 75.1 IL6R-G1d/IL6R-L=100 | Relative FcgRIIb-binding Activity (FcgRIIb): 178 IL6R-G1d/IL6R-L=100

B13: IL6R-BP504/IL6R-L (antibody, human IgG1, kappa, name in EU numbering)
heavy: B1 heavy with E274P
light: not shown
notes: human IgG1
Kd [1]: 24 nM | Kd [2]: 1.4 nM | Kd [3]: 450 nM | Relative FcgRIIb-binding Activity [4]: 127 | Relative FcgRIIaR-binding Activity [5]: 2.4

B15: IL6R-BP269/IL6R-L (antibody, human IgG1, kappa, name in EU numbering)
heavy: B1 heavy with D235E, I266V, A269S, Y298D
light: not shown
notes: human IgG1
Kd [1]: 110 nM | Kd [2]: 14 nM | Kd [3]: 2200 nM | Relative FcgRIIb-binding Activity [4]: 27.3 | Relative FcgRIIaR-binding Activity [5]: 0.5

B16: IL6R-BP492/IL6R-L (antibody, human IgG1, kappa, name in EU numbering)
heavy: B1 heavy with D235E, D239G
light: not shown
notes: human IgG1
Kd [1]: 24 nM | Kd [2]: 0.79 nM | Kd [3]: 920 nM | Relative FcgRIIb-binding Activity [4]: 131 | Relative FcgRIIaR-binding Activity [5]: 1.2

Further lines, results first:

Relative FcgRIIaR-binding Activity (FcgRIIaR): 5.2 IL6R-G1d/IL6R-L=100 | Relative FcgRIIb-binding Activity (FcgRIIb): 13.7 IL6R-G1d/IL6R-L=100
B2: IL6R-P645/IL6R-L (antibody, human IgG1, kappa)
heavy: B1 heavy with D267K, Y298D, A332R, P398M, E441K
light: not shown

Relative FcgRIIaR-binding Activity (FcgRIIaR): 5.6 IL6R-G1d/IL6R-L=100 | Relative FcgRIIb-binding Activity (FcgRIIb): 15.2 IL6R-G1d/IL6R-L=100
B3: IL6R-P647/IL6R-L (antibody, human IgG1, kappa)
heavy: B1 heavy with D267R, Y298D, A332R, P398M, E441K
light: not shown

Relative FcgRIIaR-binding Activity (FcgRIIaR): 7 IL6R-G1d/IL6R-L=100 | Relative FcgRIIb-binding Activity (FcgRIIb): 47.6 IL6R-G1d/IL6R-L=100
B7: IL6R-P701/IL6R-L (antibody, human IgG1, kappa)
heavy: B1 heavy with L236N, D239G, A269R, E441K
light: not shown

Relative FcgRIIaR-binding Activity (FcgRIIaR): 103 IL6R-G1d/IL6R-L=100 | Relative FcgRIIb-binding Activity (FcgRIIb): 175 IL6R-G1d/IL6R-L=100
B10: IL6R-P642/IL6R-L (antibody, human IgG1, kappa)
heavy: B1 heavy with G238Q, Y298D, A332R, P398M, E441K
light: not shown

Relative FcgRIIaR-binding Activity (FcgRIIaR): 61.5 IL6R-G1d/IL6R-L=100 | Relative FcgRIIb-binding Activity (FcgRIIb): 170 IL6R-G1d/IL6R-L=100
B12: IL6R-P641/IL6R-L (antibody, human IgG1, kappa)
heavy: B1 heavy with L236R, Y298D, A332R, P398M, E441K
light: not shown

Relative FcgRIIaR-binding Activity (FcgRIIaR): 41.6 IL6R-G1d/IL6R-L=100 | Relative FcgRIIb-binding Activity (FcgRIIb): 155 IL6R-G1d/IL6R-L=100
B14: IL6R-P650/IL6R-L (antibody, human IgG1, kappa)
heavy: B1 heavy with A269K, Y298D, A332R, P398M, E441K
light: not shown

Relative FcgRIIaR-binding Activity (FcgRIIaR): 3.6 IL6R-G1d/IL6R-L=100 | Relative FcgRIIb-binding Activity (FcgRIIb): 28.7 IL6R-G1d/IL6R-L=100
B17: IL6R-P697/IL6R-L (antibody, human IgG1, kappa)
heavy: B1 heavy with D239K, A269R, E441K
light: not shown
